Assay results published in US20030129189A1, “Tumor necrosis factor-gamma” (priority 1994, published 2003).

How the values were obtained:
[1] = test system: MC-38 murine colon cancer; test: In vivo tumorigenicity assay, syngeneic MC-38 colon cancer; parameters: species or system C57BL6/6 mice; conditions: local production by transfected MCA 38 cells, 1×10^6 cells/mouse
Procedure: [The full-length TNF-gamma and extracellular domain of DR3 was cloned into pcDNA3 expression vector and transfected to MCA 38 cells, respectively. After selection and cloning, three clones from each constructs were picked for tumorigenicity study. MCA 38 cells (1×10^6 cells/mouse) expressing TNF-gamma or DR3 extracellular domain were injected into C57BL6/6 mice. The tumor size was assessed by measuring perpendicular diameters with a caliper and calculated by multiplying the measurements of diameters in two dimensions. Data are represented as the mean +/−SD of 6 mice in each group.] It is clear that most immune cells and cancer cells can express more than one TNF receptor (even more than one death receptor) and ligand superfamily member. […] Moreover, the expression of these ligands and receptors may differ at the level of individual cell types within tissues and the expression level on the same cell type may also differ.
The full length TNF-gamma and extracellular domain of DR3 was cloned into pcDNA3 expression vector (Invitrogen, Carlsbad, Calif.) and transfected to MCA 38 cells, respectively. […] Mice then were randomized and tumors were measured twice weekly. The tumor size was assessed by measuring perpendicular diameters with a caliper and calculated by multiplying the measurements of diameters in two dimensions. […]

[2] = molecular target: T1, DR4 on transiently transfected cells (UniProt O00220 24-468, limits assumed); test: flow cytometry on transiently transfected cells
T1 construct: whole, on cells
T1 sequence (looked up): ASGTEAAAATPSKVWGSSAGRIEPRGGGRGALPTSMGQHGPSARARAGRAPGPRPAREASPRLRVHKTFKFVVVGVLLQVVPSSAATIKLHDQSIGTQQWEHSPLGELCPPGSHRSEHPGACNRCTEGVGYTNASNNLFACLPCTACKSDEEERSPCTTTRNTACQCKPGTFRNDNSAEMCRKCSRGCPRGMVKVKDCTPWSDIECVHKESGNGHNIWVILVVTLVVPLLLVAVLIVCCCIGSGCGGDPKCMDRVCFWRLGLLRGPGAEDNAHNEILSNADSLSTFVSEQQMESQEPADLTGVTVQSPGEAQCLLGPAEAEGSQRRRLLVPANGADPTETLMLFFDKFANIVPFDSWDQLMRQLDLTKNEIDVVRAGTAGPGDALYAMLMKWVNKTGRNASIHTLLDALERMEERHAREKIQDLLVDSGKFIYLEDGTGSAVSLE
Procedure: (§1) One million cells, in 0.1 ml of FACS buffer (PBS, 0.1% BSA, 0.1% NaN₃), were incubated with 0.1-1 microgram of protein or antibody at RT for 15 min. The cells were washed with 3 ml of FACS buffer, reacted with biotinylated primary antibody, and stained with PE-conjugated secondary antibody at RT for 15 min. Cells were then washed again, resuspended in 0.5 microgram/ml of propidium iodide, and live cells were gated and analyzed on a FACScan using the CellQuest software (BD Biosciences).

[3] = molecular target: T2, TNFR2 on transiently transfected cells (UniProt P20333 23-461, limits assumed); test: flow cytometry on transiently transfected cells
T2 construct: whole, on cells
T2 sequence (looked up): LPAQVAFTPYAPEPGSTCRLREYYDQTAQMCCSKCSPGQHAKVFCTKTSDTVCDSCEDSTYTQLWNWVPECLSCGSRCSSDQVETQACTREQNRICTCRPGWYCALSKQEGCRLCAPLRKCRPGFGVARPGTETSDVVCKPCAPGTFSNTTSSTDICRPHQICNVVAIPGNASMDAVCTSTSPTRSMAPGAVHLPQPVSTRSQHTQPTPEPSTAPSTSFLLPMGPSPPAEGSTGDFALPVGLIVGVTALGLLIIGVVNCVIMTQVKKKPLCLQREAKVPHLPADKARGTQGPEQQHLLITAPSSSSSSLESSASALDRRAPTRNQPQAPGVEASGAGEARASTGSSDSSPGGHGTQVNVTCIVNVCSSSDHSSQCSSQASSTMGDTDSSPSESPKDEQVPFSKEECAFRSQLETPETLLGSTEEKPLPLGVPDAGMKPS
Procedure: as §1

[4] = molecular target: T3, LTβR on transiently transfected cells (UniProt P36941 31-435, limits assumed); test: flow cytometry on transiently transfected cells
T3 construct: whole, on cells
Procedure: as §1

[5] = molecular target: T4, DR5 on transiently transfected cells (UniProt O14763 56-440, limits assumed); test: flow cytometry on transiently transfected cells
T4 construct: whole, on cells
Procedure: as §1

[6] = molecular target: T5, 4-1BB on transiently transfected cells (UniProt Q07011 24-255); test: flow cytometry on transiently transfected cells
T5 construct: whole, on cells
Procedure: as §1

[7] = molecular target: T6, DR6 on transiently transfected cells (UniProt O75509 42-655, limits assumed); test: flow cytometry on transiently transfected cells
T6 construct: whole, on cells
T6 sequence (looked up): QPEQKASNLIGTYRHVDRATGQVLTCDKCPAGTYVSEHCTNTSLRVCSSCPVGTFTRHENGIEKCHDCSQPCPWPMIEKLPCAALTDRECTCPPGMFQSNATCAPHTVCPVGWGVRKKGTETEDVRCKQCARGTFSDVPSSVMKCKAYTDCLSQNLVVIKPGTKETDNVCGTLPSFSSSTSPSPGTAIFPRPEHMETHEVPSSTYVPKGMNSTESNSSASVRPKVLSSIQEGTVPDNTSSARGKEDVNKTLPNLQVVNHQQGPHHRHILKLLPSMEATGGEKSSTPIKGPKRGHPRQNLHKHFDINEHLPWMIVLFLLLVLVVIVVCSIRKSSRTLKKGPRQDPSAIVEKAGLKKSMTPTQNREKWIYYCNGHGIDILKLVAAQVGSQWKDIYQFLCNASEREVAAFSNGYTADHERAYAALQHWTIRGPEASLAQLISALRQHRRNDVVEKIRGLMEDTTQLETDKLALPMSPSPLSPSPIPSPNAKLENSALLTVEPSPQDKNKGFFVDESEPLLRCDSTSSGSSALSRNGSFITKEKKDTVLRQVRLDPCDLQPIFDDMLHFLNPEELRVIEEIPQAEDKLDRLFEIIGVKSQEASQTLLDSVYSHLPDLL
Procedure: as §1

T5 sequence (Q07011 24-255): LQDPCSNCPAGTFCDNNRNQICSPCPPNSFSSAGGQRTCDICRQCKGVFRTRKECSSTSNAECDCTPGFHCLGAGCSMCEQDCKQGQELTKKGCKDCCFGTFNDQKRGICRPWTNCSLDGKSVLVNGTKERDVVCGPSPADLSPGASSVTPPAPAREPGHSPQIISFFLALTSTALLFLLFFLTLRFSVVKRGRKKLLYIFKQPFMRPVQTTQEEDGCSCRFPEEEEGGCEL
T3 sequence (P36941 31-435 limits assumed): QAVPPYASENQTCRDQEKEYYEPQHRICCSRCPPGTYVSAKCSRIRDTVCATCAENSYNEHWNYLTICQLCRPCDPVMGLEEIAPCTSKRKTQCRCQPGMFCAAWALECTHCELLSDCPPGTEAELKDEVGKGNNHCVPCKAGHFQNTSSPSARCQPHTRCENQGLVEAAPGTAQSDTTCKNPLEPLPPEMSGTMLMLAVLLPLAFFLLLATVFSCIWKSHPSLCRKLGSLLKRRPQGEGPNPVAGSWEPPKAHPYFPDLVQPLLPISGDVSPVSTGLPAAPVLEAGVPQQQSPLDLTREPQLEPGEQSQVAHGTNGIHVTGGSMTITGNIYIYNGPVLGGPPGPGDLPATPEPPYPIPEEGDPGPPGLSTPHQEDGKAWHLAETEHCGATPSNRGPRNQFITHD

TNF-gamma: new member of the tumor necrosis factor family; the term refers to TNF-gamma-alpha and/or TNF-gamma-beta
tumor growth [1]: caused complete tumor suppression

B1: FLAG-tagged soluble TNF-gamma-beta (aa 72-251) (ligand)
chain: LKGQEFAPSHQQVYAPLRADGDKPRAHLTVVRQTPTQHFKNQFPALHWEHELGLAFTKNRMNYTNKFLLIPESGDYFIYSQVTFRGMTSECSEIRQAGRPNKPDSITVVITKVTDSYPEPTQLLMGTKSVCEVGSNWFQPIYLGAMFSLQEGDKLMVNVSDISLVDYTKEDKTFFGAFLL
notes: also called FLAG-TL1β; FLAG-TNF-gamma-beta; not shown: The N-terminal FLAG tag (pFLAG-CMV-1 vector) and any vector linker
binding result [2]: no binding | binding result [3]: no binding | binding result [4]: no binding | binding result [5]: no binding | binding result [6]: no binding | binding result [7]: no binding
